Assay results reported in article PMC10992614, “Construction and optimization of a biocatalytic route for the synthesis of neomenthylamine from menthone” (Bioresources and Bioprocessing, 2023).
Each block holds one molecule with its values, some of them ahead of it.

Legend:
[1] = molecular target: T1, ω-transaminase from Vibrio fluvialis JS17 (VfTA) (Vibrio fluvialis, UniProt F2XBU9); experiment: enzyme kinetics (GC assay), product inhibition of VfTA; assay type: biochemical
T1 sequence (F2XBU9 1-453): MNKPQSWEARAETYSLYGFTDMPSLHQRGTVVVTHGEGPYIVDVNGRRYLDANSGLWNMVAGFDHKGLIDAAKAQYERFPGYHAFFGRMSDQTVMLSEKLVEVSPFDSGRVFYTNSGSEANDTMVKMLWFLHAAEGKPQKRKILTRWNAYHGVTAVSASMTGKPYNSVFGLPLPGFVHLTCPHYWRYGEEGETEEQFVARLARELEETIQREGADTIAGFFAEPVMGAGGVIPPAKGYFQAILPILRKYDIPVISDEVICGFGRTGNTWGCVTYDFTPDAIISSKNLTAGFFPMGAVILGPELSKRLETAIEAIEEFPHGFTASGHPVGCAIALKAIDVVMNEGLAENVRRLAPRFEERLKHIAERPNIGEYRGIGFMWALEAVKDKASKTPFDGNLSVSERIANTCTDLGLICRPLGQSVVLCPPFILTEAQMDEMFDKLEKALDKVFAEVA

[2] = molecular target: T1, ω-transaminase from Vibrio fluvialis JS17 (VfTA); experiment: product formation by purified VfTA (GC); no product inhibition detected; assay type: biochemical
purified protein = substrate: C[C@H](N)c1ccccc1; experiment: purified protein; assay type: biochemical, Vibrio fluvialis; details: pyridoxal-5'-phosphate (PLP)
[3] = substrate: CC(C)[C@@H]1CC[C@@H](C)CC1=O; experiment: steady-state kinetics with purified VfTA (KM, GC assay); assay type: biochemical, Vibrio fluvialis; details: pyridoxal-5'-phosphate (PLP)

Ki [1]: 600 µM
Molecule: CC(=O)c1ccccc1 [Acetophenone]

Molecule: CC(C)[C@@H]1CC[C@@H](C)C[C@@H]1N [(+)-neomenthylamine]
product formation by purified VfTA (GC); no product inhibition detected [2]: transaminase (VfTA) from Vibrio fluvialis JS17 (PDB: 5ZTX) that can convert (−)-menthone into (+)-neomenthylamine successfully

B1: ω-transaminase from Vibrio fluvialis JS17 (VfTA) (Vibrio fluvialis) (protein)
chain: MNKPQSWEARAETYSLYGFTDMPSLHQRGTVVVTHGEGPYIVDVNGRRYLDANSGLWNMVAGFDHKGLIDAAKAQYERFPGYHAFFGRMSDQTVMLSEKLVEVSPFDSGRVFYTNSGSEANDTMVKMLWFLHAAEGKPQKRKILTRWNAYHGVTAVSASMTGKPYNSVFGLPLPGFVHLTCPHYWRYGEEGETEEQFVARLARELEETIQREGADTIAGFFAEPVMGAGGVIPPAKGYFQAILPILRKYDIPVISDEVICGFGRTGNTWGCVTYDFTPDAIISSKNLTAGFFPMGAVILGPELSKRLETAIEAIEEFPHGFTASGHPVGCAIALKAIDVVMNEGLAENVRRLAPRFEERLKHIAERPNIGEYRGIGFMWALEAVKDKASKTPFDGNLSVSERIANTCTDLGLICRPLGQSVVLCPPFILTEAQMDEMFDKLEKALDKVFAEVA
Km (purified protein): 800 ± 100 µM
kcat/Km (purified protein): 54400 M⁻¹ s⁻¹
Km [3]: 5000 ± 600 µM
kcat/Km [3]: 3300 M⁻¹ s⁻¹
